Here are results for two substances from patent US20140256613A1.

For experiment [1], the target named is full-length human TLR4 expressed as fusion protein with GAL4 (pTLR4) (human). The experiment is described as follows: cell-based or functional assay.
For experiment [2] the target is unchanged. As to the kind of experiment: flow cytometry of pSPA + pTLR4 transfected HEK293 cells stained with isotype control antibody [A)(iii].
Experiment [3] has the same target. As to the kind of experiment: flow cytometry of pSPA-mutant + pTLR4 transfected HEK293 cells stained with isotype control antibody [A)(iii].

In turn, “SPA-mutant lacking SPA4 peptide region, expressed as fusion protein with VP16 (pSPA-mutant) (from UniProt Q8IWL2 21-248)” gave an LPS-induced NF-κB luciferase reporter activity in co-transfected HEK293 cells in experiment [1] of 44 RLU. Turning to (IC) (antibody), the % positive cells in region R in experiment [2] is 1.06%; in experiment [3], 1.65%.
